Results: EP4755393A1, “USE OF PROTON PUMP REGULATOR IN PREPARATION OF DRUG” (Shanghai Quietd Biotechnology Co., Ltd., priority 2023, dated 2025)
Ends that are not written are not given here.

How the values were obtained:
hATP6V1B2 = hATP6V1B2 (Homo sapiens, UniProt P21281); assay: Co-immunoprecipitation of Myc-tagged hATP6V1B2 with GFP-tagged QD202 and site mutants (HEK 293 lysates, western blot); assay type: binding; settings: expressed from pEGFP-N3 plasmids in HEK 293, anti-GFP IP, FIG. 7A, 7B
Experimental: Expression plasmids of hATP6V1B2, QD202, site-mutated QD202(D15A), site-mutated QD202(V16A), site-mutated QD202(P13A), and site-mutated QD202(V14A) were constructed respectively. The hATP6V1B2 was co-transfected into HEK 293 cells with the expression plasmids of QD202, site-mutated QD202(D15A), site-mutated QD202(V16A), site-mutated QD202(P13A) and site-mutated QD202(V14A), respectively, and cellular proteins were extracted 48 h after transfection. Table 1: Plasmid sequences
Protein extraction was performed using Pierce RIPA lysis buffer. Taking cells in a 60 mm culture dish as an example, 500 µL of Pierce RIPA lysis buffer containing protease inhibitors was added. Cells were collected and transferred to a clean 1.5 mL EP tube using a cell scraper. After mixing for 1 h on a rotary mixer at 4°C, the cells were centrifuged at 13,000 rpm at 4°C for 10 min to remove cell debris. The hATP6V1B2 was equally divided into […], which were then mixed separately with the cell lysates transfected with QD202, site-mutated QD202(P13A), site-mutated QD202(V14A), site-mutated QD202(D15A), and site-mutated QD202(V16A), 30 µL of the supernatant was taken and mixed with 10 µL of 4× loading buffer, followed by boiling at 100°C for 5 min and storage at -20°C; 2 µL of the antibody (Anti-GFP, Roche, 11814460001) was added to the remaining 470 µL of the protein lysate, and the mixture was incubated overnight (about 16-18 h) on a rotary shaker at 4°C. 30 µL of Protein G Sepharose beads (Roche, 11243233001) were placed in an EP tube and washed three times with Pierce RIPA lysis buffer to eliminate interference from the original stock solution. The protein that had been incubated with the antibody overnight was added to the Sepharose beads, followed by mixing and incubation at 4°C for 2 h to ensure sufficient binding between the antibody and the protein. The mixture was centrifuged at 4000 rpm for 1 min. The supernatant was aspirated off, followed by the addition of 600 µL of Pierce RIPA lysis buffer. The tube was gently inverted, followed by centrifugation to collect the supernatant. The above steps were repeated three times to wash away non-specifically bound proteins. Finally, 30 µL of 1×loading buffer was added, the mixture was mixed well, heated at 60°C for 20 min to denature the protein, and then stored at -20°C. The protein was examined by western blot (Myc-Tag (9B11) Mouse mAb, CST, 2276S; Anti-GFP, Roche, 11814460001).
The hATP6V1B2 was co-transfected into the host cell line HEK 293 with the expression plasmids of QD202, site-mutated QD202(P13A), site-mutated QD202(V14A), site-mutated QD202(D15A) and site-mutated QD202(V16A), respectively. […] It is therefore hypothesized that valine at position 16 of QD202 is one of the key amino acids for the binding between hATP6V1B2 and QD202, whereas proline at position 13, valine at position 14 and aspartic acid at position 15 can be replaced with alanine, as illustrated in FIG. 7A and FIG. 7B.

DIR protein = assay: Co-immunoprecipitation of QD202-Biotin peptide with Flag-His-DIR (HEK 293 lysate, western blot and dot blot); assay type: binding, human; settings: QD202-Biotin peptide added to lysate of Flag-His-DIR transfected HEK 293; anti-Biotin IP; FIG. 14
Experimental: The Flag-His-DIR expression plasmid was transfected into HEK 293, and cell proteins were extracted 48 h after transfection. Table 2: Plasmid sequences
Protein extraction was performed using Pierce RIPA lysis buffer, 1000 µL of Pierce RIPA lysis buffer containing protease inhibitors was added. Cells were collected and transferred to a clean 1.5 mL EP tube using a cell scraper. After mixing for 1 h on a rotary mixer at 4°C, the cells were centrifuged at 13,000 rpm at 4°C for 10 min to remove cell debris. The supernatant of the cell lysate was divided into two aliquots, each 500 µL, and 10 µL of QD202-Biotin peptide at a concentration of 1 mM was added to one aliquot. From each of the two aliquots, 30 µL of the supernatant was taken and mixed with 10 µL of 4× loading buffer. The mixture was boiled at 100°C for 5 min and then stored frozen at -20°C. For the remaining 470 µL of protein lysate, 2 µL of the antibody (Anti-Biotin, Vector, sp-3000) was added; the mixture was incubated overnight (about 16-18 h) on a rotary shaker at 4°C. 30 µL of Protein G Sepharose beads (Roche, 11243233001) were placed in an EP tube and washed three times with Pierce RIPA lysis buffer. […] The protein was detected by Western blot and dot blot methods (DYKDDDDK-Tag (3B9) mAb, Abmart, M20008; Anti-Biotin, Vector, sp-3000).

Sequence of hATP6V1B2 (P21281 whole entry): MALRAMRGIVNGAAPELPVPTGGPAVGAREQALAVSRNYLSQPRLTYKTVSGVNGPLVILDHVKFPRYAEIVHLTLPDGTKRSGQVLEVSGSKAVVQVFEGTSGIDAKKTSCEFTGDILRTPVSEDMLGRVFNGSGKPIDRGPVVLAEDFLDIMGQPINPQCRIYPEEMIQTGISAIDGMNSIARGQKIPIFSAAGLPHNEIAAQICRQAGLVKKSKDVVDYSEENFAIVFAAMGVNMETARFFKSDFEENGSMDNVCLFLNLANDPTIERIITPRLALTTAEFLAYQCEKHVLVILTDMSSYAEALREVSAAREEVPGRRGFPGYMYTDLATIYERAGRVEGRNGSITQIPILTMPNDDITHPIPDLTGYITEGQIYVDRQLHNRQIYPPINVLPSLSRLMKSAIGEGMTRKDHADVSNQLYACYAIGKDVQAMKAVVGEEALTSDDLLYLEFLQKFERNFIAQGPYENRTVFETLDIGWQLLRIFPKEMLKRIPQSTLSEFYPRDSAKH

For “QD202: Polypeptide synthesized according to the amino acid sequence set forth in SEQ ID NO: 1; ATP6V1B2 regulator / DIR regulator (YGRKKRRQRRRSPVDVVCS; not fully specified)”, the “binding to Myc-tagged hATP6V1B2 (co-immunoprecipitation)” value (hATP6V1B2) was “bind to” and the “binding to the DIR protein (co-immunoprecipitation)” value (DIR protein) was “can bind”.
